Here are results for 1 substance from paper PMC11313003.

Usually stoichiometry N stands for the number of molecules, sites or subunits per partner or assembly.

Test [1] has as its target soluble trimeric-RBD form of the SARS-CoV-2 S protein (RBD aa 330-532, Wuhan strain, with a foldon t (SARS-CoV-2 (ancestral Wuhan strain) | T4 (as in 'T4 fibritin')) (UniProt P0DTC2)). The test is described as follows: Western blot under non-reducing conditions.
For test [2] the target is unchanged. The test is described as follows: SEC.

For the substance “soluble trimeric-RBD form of the SARS-CoV-2 S protein (RBD aa 330-532, Wuhan strain, with a foldon t (from UniProt P0DTC2 330-532) (domain or fragment)”, the stoichiometry N in test [1] and in test [2] was 3 in each case.
